Measured values as given in paper PMC4194032 (Cell, 2014).

Experiments:
Assay in all cases: split reporter
Heh1-VN (budding yeast) = Heh1-VN (budding yeast) (UniProt Q03707)
Snf7-VN = target: T1, Snf7-VN (budding yeast, UniProt P39929 1-240)
T1 sequence (looked up): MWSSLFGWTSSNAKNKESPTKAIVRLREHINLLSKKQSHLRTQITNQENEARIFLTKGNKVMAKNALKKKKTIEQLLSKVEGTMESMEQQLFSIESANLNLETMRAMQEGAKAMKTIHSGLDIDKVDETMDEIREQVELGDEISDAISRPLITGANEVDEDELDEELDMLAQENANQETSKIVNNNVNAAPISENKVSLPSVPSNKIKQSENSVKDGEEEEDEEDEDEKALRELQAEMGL

Heh2-VN = target: T2, Heh2-VN (budding yeast, UniProt Q03281 1-663)
T2 sequence (looked up): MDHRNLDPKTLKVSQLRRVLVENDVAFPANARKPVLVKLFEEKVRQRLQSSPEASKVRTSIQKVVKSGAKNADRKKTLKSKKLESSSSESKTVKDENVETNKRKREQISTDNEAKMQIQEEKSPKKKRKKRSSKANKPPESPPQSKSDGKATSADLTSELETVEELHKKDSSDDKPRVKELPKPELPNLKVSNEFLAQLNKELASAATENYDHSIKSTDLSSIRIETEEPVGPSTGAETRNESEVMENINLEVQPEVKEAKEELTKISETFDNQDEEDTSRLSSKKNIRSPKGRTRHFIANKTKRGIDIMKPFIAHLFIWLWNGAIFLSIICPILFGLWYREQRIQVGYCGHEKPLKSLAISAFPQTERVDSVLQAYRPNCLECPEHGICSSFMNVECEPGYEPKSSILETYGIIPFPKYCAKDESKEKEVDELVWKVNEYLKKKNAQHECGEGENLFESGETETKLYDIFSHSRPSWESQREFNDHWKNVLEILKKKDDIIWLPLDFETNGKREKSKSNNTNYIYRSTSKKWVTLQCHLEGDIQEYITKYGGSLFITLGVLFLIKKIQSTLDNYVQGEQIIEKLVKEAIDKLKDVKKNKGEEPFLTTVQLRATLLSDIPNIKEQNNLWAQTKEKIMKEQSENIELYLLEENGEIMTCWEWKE

Sequence of Heh1-VN (budding yeast) (Q03707 whole entry): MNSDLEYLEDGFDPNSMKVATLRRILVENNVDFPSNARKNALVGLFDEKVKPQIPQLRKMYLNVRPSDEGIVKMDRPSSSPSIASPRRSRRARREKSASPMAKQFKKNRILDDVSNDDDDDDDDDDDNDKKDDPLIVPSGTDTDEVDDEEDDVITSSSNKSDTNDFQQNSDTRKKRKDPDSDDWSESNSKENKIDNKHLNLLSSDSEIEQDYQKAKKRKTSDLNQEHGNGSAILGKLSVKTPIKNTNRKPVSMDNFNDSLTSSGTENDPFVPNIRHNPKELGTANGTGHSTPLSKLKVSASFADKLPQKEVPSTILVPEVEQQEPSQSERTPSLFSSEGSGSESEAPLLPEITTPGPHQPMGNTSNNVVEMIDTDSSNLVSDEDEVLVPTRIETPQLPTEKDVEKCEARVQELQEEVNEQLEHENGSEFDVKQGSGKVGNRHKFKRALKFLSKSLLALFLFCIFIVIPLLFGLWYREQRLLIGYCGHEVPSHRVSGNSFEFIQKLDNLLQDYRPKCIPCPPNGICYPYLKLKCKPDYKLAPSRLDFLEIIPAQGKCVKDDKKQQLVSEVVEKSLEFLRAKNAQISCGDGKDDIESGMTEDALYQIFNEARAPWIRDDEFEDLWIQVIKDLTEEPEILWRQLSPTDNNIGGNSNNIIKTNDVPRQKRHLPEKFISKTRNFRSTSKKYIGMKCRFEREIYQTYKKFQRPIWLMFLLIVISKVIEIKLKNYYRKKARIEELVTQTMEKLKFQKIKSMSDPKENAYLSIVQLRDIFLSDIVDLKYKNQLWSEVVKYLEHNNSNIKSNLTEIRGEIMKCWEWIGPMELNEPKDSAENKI

Row | Molecule | percent of cells with Venus fluorescence (Snf7-VN) | further results
1 | Snf7-VC (from UniProt P39929 1-240) (natural protein) |  | percent of cells with Venus fluorescence (Heh1-VN (budding yeast)): 45 % of cells
2 | Bro1-VC (natural protein, budding yeast, UniProt P48582 1-844, looked up) MKPYLFDLKLKDTEKLDWKKGLSSYLKKSYGSSQWRTFYDEKATSELDHLRNNANGELAPSSLSEQNLKYYSFLEHLYFRLGSKGSRLKMDFTWYDAEYSSAQKGLKYTQHTLAFEKSCTLFNIAVIFTQIARENINEDYKNSIANLTKAFSCFEYLSENFLNSPSVDLQSENTRFLANICHAEAQELFVLKLLNDQISSKQYTLISKLSRATCNLFQKCHDFMKEIDDDVAIYGEPKWKTTVTCKLHFYKSLSAYYHGLHLEEENRVGEAIAFLDFSMQQLISSLPFKTWLVEFIDFDGFKETLEKKQKELIKDNDFIYHESVPAVVQVDSIKALDAIKSPTWEKILEPYMQDVANKCDSLYRGIIPLDVYEKESIYSEEKATLLRKQVEETETANLEYSSFIEFTNLPRLLSDLEKQFSDGNIFSNTDTQGQLMRDQIQTWCKFIQTNEFRDIEEQMNKIVFKRKQILEILSALPNDQKENVTKLKSSLVAASNSDEKLFACVKPHIVEINLLNDNGKIWKKFDEFNRNTPPQPSLLDIDDTKNDKILELLKQVKGHAEDLRTLKEERSRNLSELRDEINNDDITKLLIINKGKSDVELKDLFEVELEKFEPLSTRIEATIYKQSSMIDDIKAKLDEIFHLSNFKDKSSGEEKFLEDRKNFFDKLQEAVKSFSIFASDLPKGIEFYDSLFNMSRDLAERVRVAKQTEDSTANSPAPPLPPLDSKASVVGGPPLLPQKSAAFQSLSRQGLNLGDQFQNLKISAGSDLPQGPGIPPRTYEASPYAATPTMAAPPVPPKQSQEDMYDLRRRKAVENEERELQENPTSFYNRPSVFDENMYSKYSS | ~90 % of cells | 
3 | Snf7-VC (natural protein, budding yeast, UniProt P39929 1-240, looked up) MWSSLFGWTSSNAKNKESPTKAIVRLREHINLLSKKQSHLRTQITNQENEARIFLTKGNKVMAKNALKKKKTIEQLLSKVEGTMESMEQQLFSIESANLNLETMRAMQEGAKAMKTIHSGLDIDKVDETMDEIREQVELGDEISDAISRPLITGANEVDEDELDEELDMLAQENANQETSKIVNNNVNAAPISENKVSLPSVPSNKIKQSENSVKDGEEEEDEEDEDEKALRELQAEMGL |  | percent of cells with Venus fluorescence (Heh2-VN): ~18 % of cells
4 | Vps20-VC (natural protein, budding yeast, UniProt Q04272 1-221, looked up) MGQKSSKVHITKTDRAILEVKRSKDEIHKFTRRTDNLILVEKSQLKDLIRKNPENYKSNMKVRFLLKRIHYQEHLLQQASDQLINLENMVSTLEFKMVEKQFINGLKNGNEILKKLNKEFSNVDELMDDVQDQIAYQNEINETLSRSLVGTSNYEDDLDKELDALESELNPEKMNNAKVANMPSTEGLPSLPQGEQTEQKEREEFATEERSDTKEPLALLS | ~90 % of cells | 
